This is an account of results in the Immune Epitope Database (IEDB).

In test [1] the target is HLA-B*07:02. The test is described as follows: IEDB peptide-MHC binding, purified MHC/competitive/radioactivity; filed as Kd, often an IC50 or EC50 that approximates it; ≥ and ≤ were set here for values at or beyond the usual limits of such assays.
The target of another test is HLA-B*53:01. The description is as above.
The target of test [2] is HLA-B*51:01. Described as above.
The next test addresses HLA-B*35:01. Described as above.
Another test concerns the target HLA-B*54:01. Described as above.
The next test concerns the target HLA-A*02:02. Described as above. The settings on record: source organism: Vaccinia virus WR.
Test [3] concerns the target HLA-A*31:01. The test is described as above. The settings on record: source organism: Vaccinia virus WR.
Test [4] addresses HLA-A*02:03. The description is as above. The settings on record: source organism: Vaccinia virus WR.
The target of test [5] is HLA-A*03:01. Described as above. The settings on record: source organism: Vaccinia virus WR.
The target in test [6] is HLA-A*11:01. Described as above. The settings on record: source organism: Vaccinia virus WR.
The next test has as its target HLA-A*68:02. Described as above. The settings on record: source organism: Vaccinia virus WR.
A further test addresses HLA-A*02:06. The test is described as above. The conditions noted are these: source organism: Vaccinia virus WR.
Test [7] has as its target HLA-A*02:01. The description is as above. The settings on record: source organism: Vaccinia virus WR.
The next test concerns the target HLA-A*33:01. The test is described as above. The conditions noted are these: source organism: Vaccinia virus WR.
The next test addresses HLA-A*68:01. The description is as above. The settings on record: source organism: Vaccinia virus WR.
For another test, the target named is HLA-B*27:05. In words: IEDB peptide-MHC binding, purified MHC/direct/fluorescence; filed as Kd, often an IC50 or EC50 that approximates it; ≥ and ≤ were set here for values at or beyond the usual limits of such assays. The settings on record: source organism: Ebola virus - Gabon (1994-1997).
The target of test [8] is HLA-A*31:01. Described as above. The settings on record: source organism: Ebola virus - Gabon (1994-1997).
The next test concerns the target HLA-A*02:16. The test is described as above. The settings on record: source organism: Zaire ebolavirus.
For test [9], the target named is HLA-A*02:03. Described as above. The conditions noted are these: source organism: Zaire ebolavirus.
The target of a further test is HLA-B*48:01. The description is as above. The settings on record: source organism: Ebola virus - Gabon (1994-1997).
Test [10] deals with HLA-A*03:01. Described as above. The settings on record: source organism: Ebola virus - Gabon (1994-1997).
Another test addresses HLA-B*15:01. Described as above. The conditions noted are these: source organism: Ebola virus - Gabon (1994-1997).
Test [11] deals with HLA-B*07:02. Described as above. The settings on record: source organism: Ebola virus - Gabon (1994-1997).
Another test has as its target HLA-B*39:01. The test is described as above. The conditions noted are these: source organism: Ebola virus - Gabon (1994-1997).
In test [12] the target is HLA-A*11:01. The description is as above. The settings on record: source organism: Ebola virus - Gabon (1994-1997).
Another test deals with HLA-B*57:01. The test is described as above. The conditions noted are these: source organism: Ebola virus - Gabon (1994-1997).
For a further test, the target named is HLA-B*18:01. Described as above. The conditions noted are these: source organism: Ebola virus - Gabon (1994-1997).
The target in the next test is HLA-B*46:01. The test is described as above. The conditions noted are these: source organism: Ebola virus - Gabon (1994-1997).
In another test the target is HLA-A*02:12. The test is described as above. The conditions noted are these: source organism: Zaire ebolavirus.
For another test, the target named is HLA-A*01:01. The description is as above. The conditions noted are these: source organism: Ebola virus - Gabon (1994-1997).
The target in the next test is HLA-B*44:02. The test is described as above. The settings on record: source organism: Ebola virus - Gabon (1994-1997).
In another test the target is HLA-A*02:19. The test is described as above. The settings on record: source organism: Zaire ebolavirus.
For another test, the target named is HLA-B*58:01. The test is described as above. The settings on record: source organism: Ebola virus - Gabon (1994-1997).
The target of another test is HLA-A*02:11. Described as above. The conditions noted are these: source organism: Zaire ebolavirus.
In a further test the target is HLA-B*40:01. The description is as above. The conditions noted are these: source organism: Ebola virus - Gabon (1994-1997).
The target in a further test is HLA-A*26:01. In words: IEDB peptide-MHC binding, purified MHC/competitive/fluorescence; filed as Kd, often an IC50 or EC50 that approximates it; ≥ and ≤ were set here for values at or beyond the usual limits of such assays. The conditions noted are these: source organism: Zaire ebolavirus.
Another test has as its target HLA-A*69:01. The description is as above. The conditions noted are these: source organism: Zaire ebolavirus.
In test [13] the target is HLA-B*51:01. Described as above. The conditions noted are these: source organism: Zaire ebolavirus.
For test [14], the target named is HLA-A*02:01. The test is described as above. The conditions noted are these: source organism: Zaire ebolavirus.
A further test addresses HLA-B*15:17. The test is described as above. The settings on record: source organism: Zaire ebolavirus.
Another test addresses HLA-B*27:03. Described as above. The settings on record: source organism: Zaire ebolavirus.
The mark [15] stands for this setting: source organism: Vaccinia virus WR.
Where [16] appears, read: source organism: SARS coronavirus Tor2.
[17] abbreviates: source organism: Lymphocytic choriomeningitis virus (strain Armstrong).

Turning to KPYTAGNKV, the Kd with HLA-B*07:02 [1] (setting [15]) is 36.6 nM; in the test with HLA-B*53:01 (setting [15]), at least 78200 nM; with HLA-B*51:01 [2] (setting [15]) it was 10.3 nM; with HLA-B*35:01 (setting [15]), at least 77400 nM; with HLA-B*54:01 (setting [15]) it was 29.5 nM.
RPIFEWIEA: the Kd came to 378 nM with HLA-B*07:02 [1] (setting [16]); 234 nM with HLA-B*53:01 (setting [16]); 416 nM with HLA-B*51:01 [2] (setting [16]); 296 nM with HLA-B*35:01 (setting [16]); 100 nM with HLA-B*54:01 (setting [16]).
Turning to LPFYETLPEL, the Kd with HLA-B*07:02 [1] (setting [15]) was found to be 79.8 nM; in the test with HLA-B*53:01 (setting [15]) it was 57 nM; in the test with HLA-B*51:01 [2] (setting [15]), 55.1 nM; with HLA-B*35:01 (setting [15]) it was 63.1 nM; with HLA-B*54:01 (setting [15]), 29.7 nM.
Consider VPHSVFIASA, for which the Kd in the test with HLA-B*07:02 [1] (setting [15]) is 528 nM; with HLA-B*53:01 (setting [15]), at least 69900 nM; with HLA-B*51:01 [2] (setting [15]), at least 69600 nM; in the test with HLA-B*35:01 (setting [15]), 8490 nM; with HLA-B*54:01 (setting [15]), 0.286 nM.
As for MPSEDGAEAL, the Kd with HLA-B*07:02 [1] (setting [17]) was 1360 nM; with HLA-B*53:01 (setting [17]), 1730 nM; with HLA-B*51:01 [2] (setting [17]), at least 21500 nM; with HLA-B*35:01 (setting [17]) it was 68.1 nM; with HLA-B*54:01 (setting [17]), 2850 nM.
Regarding SPETQQMII, the Kd worked out at 408 nM in the test with HLA-B*07:02 [1] (setting [15]); 11.4 nM with HLA-B*53:01 (setting [15]); 105 nM with HLA-B*51:01 [2] (setting [15]); 845 nM in the test with HLA-B*35:01 (setting [15]); 19500 nM with HLA-B*54:01 (setting [15]).
With VLPHLCLDYK, the Kd with HLA-A*02:02 was at least 70000 nM; in the test with HLA-A*31:01 [3] it was 1760 nM; with HLA-A*02:03 [4], at least 70400 nM; with HLA-A*03:01 [5], 26.1 nM; in the test with HLA-B*07:02 [1] (setting [15]) it was at least 69600 nM; with HLA-B*53:01 (setting [15]) it was at least 69900 nM. The Kd with HLA-A*11:01 [6] is 194 nM; with HLA-A*68:02, at least 69800 nM; with HLA-B*51:01 [2] (setting [15]), at least 69600 nM; with HLA-B*35:01 (setting [15]) it was at least 69900 nM; with HLA-A*02:06, at least 20200 nM; with HLA-A*02:01 [7], at least 69400 nM. The Kd with HLA-B*54:01 (setting [15]) is at least 69900 nM; with HLA-A*33:01, 19300 nM; with HLA-A*68:01, 1320 nM.
Turning to YFTFDLTAL, the Kd with HLA-B*27:05, with HLA-A*31:01 [8], in the test with HLA-A*02:16, in the test with HLA-A*02:03 [9], with HLA-B*48:01 and with HLA-A*03:01 [10] was at least 20000 nM throughout. Also, the Kd with HLA-B*15:01, with HLA-B*07:02 [11], with HLA-B*39:01, with HLA-A*11:01 [12], in the test with HLA-B*57:01 and with HLA-B*18:01 was at least 20000 nM each time. Also, the Kd with HLA-B*46:01, in the test with HLA-A*02:12, with HLA-A*01:01, with HLA-B*44:02, in the test with HLA-A*02:19 and with HLA-B*58:01 was at least 20000 nM each time. The Kd with HLA-A*02:11, with HLA-B*40:01, with HLA-A*26:01, with HLA-A*69:01, in the test with HLA-B*51:01 [13] and with HLA-A*02:01 [14] was at least 20000 nM in each case. Besides, the Kd with HLA-B*15:17 and in the test with HLA-B*27:03 was at least 20000 nM each time.
With NPTKYIRWKL, the Kd is 27 nM with HLA-B*07:02 [1] (setting [15]); 2020 nM in the test with HLA-B*53:01 (setting [15]); at least 59400 nM in the test with HLA-B*51:01 [2] (setting [15]); 15000 nM with HLA-B*35:01 (setting [15]); 5880 nM with HLA-B*54:01 (setting [15]).
